Laboratory results: publication PMC13544220, “Glycemic and bodyweight effects of GIPR coding variation reflect differences in surface expression and intrinsic functional impairment” (Science Advances, 2026)

Columns and labels:
Format in all cases: cell-based, human
[1] = test system: wild-type and variant SNAP-GIPR; assay: Surface SNAP-GIPR expression (SNAP-tag labelling) in AD293 cells; conditions: for AD293 Surface: Fig S3E, mean; for Surface SNAP-GIPR expression: sheet Fig 1C;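 on all read-outs here: scaled to the experimental average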
Procedure, shortened: (§1)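 Read-out: whole-cell fluorescence of surface-only SNAP label (Alexa Fluor 647, 500 nM, 10 min, RT), wide-field 20X, several FOVs per well. Flat-field corrected, phase-contrast masked, nontransfected-well signal subtracted; normalized to experiment mean or wild-type.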

[2] = test system: wild-type and variant SNAP-GIPR; assay: Single-concentration GIP cAMP response by HTRF in INS-1 cells; conditions: Fig S3E, mean
Description: (§2) All variants were tested in parallel on each occasion to control for transfection efficiency differences between experiments.

[3] = test system: wild-type and variant SNAP-GIPR; assay: Constitutive and agonist-mediated internalization, reversible SNAP-tag labelling, AD293 cells; design: key to Internalisation, Vehicle / Internalisation, +GIP / Internalisation, GIP-only: % internalization: residual fluorescence after Mesna vs pre-Mesna; Surface expression: unit not given here; conditions: Mean; for +GIP internalisation (100 nM) / GIP-specific internalisation (100 nM) / Constitutive internalisation (100 nM) / Surface expression: Fig 4E; for +GIP internalisation (100 nM) / GIP-specific internalisation (100 nM): GIP 100 nM; for Internalisation, +GIP / Internalisation, GIP-only / Internalisation, Vehicle: Fig S4C, AD293
Procedure, shortened: (§3)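 Percentage internalization calculated as specific SNAP fluorescence remaining after 10 min Mesna exposure, relative to pre-Mesna signal, imaged in TNE buffer (pH 8.6).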

[4] = test system: wild-type and variant SNAP-GIPR; assay: Surface SNAP-GIPR expression (SNAP-tag labelling) in INS-1 cells; conditions: Fig 4G; Mean
Procedure, shortened: as §1

[5] = test system: wild-type and variant SNAP-GIPR; assay: cADDis cAMP imaging in AD293 cells, ensemble, expression-matched and per decile; conditions: Fig S3F, cADDis, mean;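 further: Ensemble cells as % of IBMX/FSK response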
Procedure, shortened: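 AD293 cells were transfected with SNAP-GIPR constructs and cotransduced with the cADDis Green Up cAMP sensor, then labeled after 24 h with 500 nM SNAP-Surface Alexa Fluor 647. Per-cell cADDis intensity was tracked at 37°C in KRBH with 6 mM glucose and 0.1% BSA.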

[6] = test system: wild-type and variant SNAP-GIPR; assay: Single-concentration GIP cAMP response by HTRF in AD293 cells; conditions: Fig S3F, HTRF, mean;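 further: ratio to experiment-wide average response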
Description: as §2

[7] = test system: wild-type and variant SNAP-GIPR; assay: Constitutive and agonist-mediated internalization, reversible SNAP-tag labelling, INS-1 cells; design: key to Internalisation, GIP-only / Internalisation, Vehicle / Internalisation, +GIP: % internalization: residual fluorescence after Mesna vs pre-Mesna; conditions: Mean; for +GIP internalisation (100 nM) / GIP-specific internalisation (100 nM) / Constitutive internalisation (100 nM): Fig 4G; for +GIP internalisation (100 nM) / GIP-specific internalisation (100 nM): GIP 100 nM; for Internalisation, +GIP / Internalisation, GIP-only / Internalisation, Vehicle: Fig S4C, INS-1
Procedure, shortened: as §3

[8] = column repeated, paired with cAMP 100 nM

B1: A207V (protein)
chain: RAETGSKGQTAGELYQRWERYRRECQETLAAAEPPSGLACNGSFDMYVCWDYAAPNATARASCPWYLPWHHHVAAGFVLRQCGSDGQWGLWRDHTQCENPEKNEAFLDQRLILERLQVMYTVGYSLSLATLLLALLILSLFRRLHCTRNYIHINLFTSFMLRAAAILSRDRLLPRPGPYLGDQALVLWNQALAACRTAQIVTQYCVGANYTWLLVEGVYLHSLLVLVGGSEEGHFRYYLLLGWGAPALFVIPWVIVRYLYENTQCWERNEVKAIWWIIRTPILMTILINFLIFIRILGILLSKLRTRQMRCRDYRLRLARSTLTLVPLLGVHEVVFAPVTEEQARGALRFAKLGFEIFLSSFQGFLVSVLYCFINKEVQSEIRRGWHHCRLRRSLGEEQRQLPERAFRALPSGSGPGEVPTSRGLSSGTLPGPGNEASRELESYC
- AD293 Surface [1, 8]: 1.462
- AD293 Surface ([1]; paired with cAMP 100 pM): 1.462
- Surface SNAP-GIPR expression ([1]; replicate 1): 1.611
- Surface SNAP-GIPR expression ([1]; replicate 2): 2.305
- Surface SNAP-GIPR expression ([1]; replicate 3): 1.718
- Surface SNAP-GIPR expression ([1]; replicate 4): 1.422
- Surface SNAP-GIPR expression ([1]; replicate 5): 1.389
- Surface SNAP-GIPR expression ([1]; replicate 6): 1.632
- Surface SNAP-GIPR expression ([1]; replicate 7): 1.104
- Surface SNAP-GIPR expression ([1]; replicate 8): 1.459
- Surface SNAP-GIPR expression ([1]; replicate 9): 1.373
- Surface SNAP-GIPR expression ([1]; replicate 10): 1.394
- Surface SNAP-GIPR expression ([1]; replicate 11): 1.581
- Surface SNAP-GIPR expression ([1]; replicate 12): 1.452
- Surface SNAP-GIPR expression ([1]; replicate 13): 1.286
- Surface SNAP-GIPR expression ([1]; replicate 14): 1.785
- Surface SNAP-GIPR expression ([1]; replicate 15): 1.758
- Surface SNAP-GIPR expression ([1]; replicate 16): 1.437
- Surface SNAP-GIPR expression ([1]; replicate 17): 1.378
- Surface SNAP-GIPR expression ([1]; replicate 18): 1.497
- Surface SNAP-GIPR expression ([1]; replicate 19): 1.272
- Surface SNAP-GIPR expression ([1]; replicate 20): 1.519
- Surface SNAP-GIPR expression ([1]; replicate 21): 1.502
- Surface SNAP-GIPR expression ([1]; replicate 22): 1.331
- Surface SNAP-GIPR expression ([1]; replicate 23): 1.374
- Surface SNAP-GIPR expression ([1]; replicate 24): 1.462
- Surface SNAP-GIPR expression ([1]; replicate 25): 1.289
- Surface SNAP-GIPR expression ([1]; replicate 26): 1.598
- Surface SNAP-GIPR expression ([1]; replicate 27): 1.353
- Surface SNAP-GIPR expression ([1]; replicate 28): 1.177
- Surface SNAP-GIPR expression ([1]; replicate 29): 1.377
- Surface SNAP-GIPR expression ([1]; replicate 30): 1.555
- Surface SNAP-GIPR expression ([1]; replicate 31): 1.582
- Surface SNAP-GIPR expression ([1]; replicate 32): 1.61
- Surface SNAP-GIPR expression ([1]; replicate 33): 1.695
- Surface SNAP-GIPR expression ([1]; replicate 34): 1.496
- Surface SNAP-GIPR expression ([1]; replicate 35): 1.543
- Surface SNAP-GIPR expression ([1]; replicate 36): 1.703
- Surface SNAP-GIPR expression ([1]; replicate 37): 1.143
- Surface SNAP-GIPR expression ([1]; replicate 38): 1.04
- Surface SNAP-GIPR expression ([1]; replicate 39): 1.054
- Surface SNAP-GIPR expression ([1]; replicate 40): 1.392
- Surface SNAP-GIPR expression ([1]; replicate 41): 1.284
- INS-1 cAMP (100 nM) [2]: 1.4138
- +GIP internalisation (100 nM) [3]: 0.7742
- GIP-specific internalisation (100 nM) [3]: 0.2212
- Constitutive internalisation (100 nM) [3]: 0.553
- Surface expression [3]: 1.34
- Internalisation, +GIP [3]: 58.1109
- Internalisation, GIP-only [3]: 16.6766
- Internalisation, Vehicle [3]: 41.4343
- Surface expression [4]: 1.239
- AD293 100 pM cADDis [5]: 35.8816
- AD293 100 nM cADDis [5]: 38.26
- AD293 100 pM HTRF [6]: 1.772
- AD293 100 nM HTRF [6]: 1.3964
- +GIP internalisation (100 nM) [7]: 0.5824
- GIP-specific internalisation (100 nM) [7]: 0.1595
- Constitutive internalisation (100 nM) [7]: 0.4229
- Internalisation, +GIP [7]: 49.74
- Internalisation, GIP-only [7]: 13.34
- Internalisation, Vehicle [7]: 36.4

B2: S415G (protein, UniProt P48546 22-466, looked up, variant S415G)
Gastric inhibitory …: RAETGSKGQTAGELYQRWERYRRECQETLAAAEPPSGLACNGSFDMYVCWDYAAPNATARASCPWYLPWHHHVAAGFVLRQCGSDGQWGLWRDHTQCENPEKNEAFLDQRLILERLQVMYTVGYSLSLATLLLALLILSLFRRLHCTRNYIHINLFTSFMLRAAAILSRDRLLPRPGPYLGDQALALWNQALAACRTAQIVTQYCVGANYTWLLVEGVYLHSLLVLVGGSEEGHFRYYLLLGWGAPALFVIPWVIVRYLYENTQCWERNEVKAIWWIIRTPILMTILINFLIFIRILGILLSKLRTRQMRCRDYRLRLARSTLTLVPLLGVHEVVFAPVTEEQARGALRFAKLGFEIFLSSFQGFLVSVLYCFINKEVQSEIRRGWHHCRLRRGLGEEQRQLPERAFRALPSGSGPGEVPTSRGLSSGTLPGPGNEASRELESYC
- AD293 Surface [1, 8]: 1.467
- AD293 Surface ([1]; paired with cAMP 100 pM): 1.467
- Surface SNAP-GIPR expression ([1]; replicate 1): 1.506
- Surface SNAP-GIPR expression ([1]; replicate 2): 0.2667
- Surface SNAP-GIPR expression ([1]; replicate 3): 1.585
- Surface SNAP-GIPR expression ([1]; replicate 4): 2.194
- Surface SNAP-GIPR expression ([1]; replicate 5): 1.195
- Surface SNAP-GIPR expression ([1]; replicate 6): 1.281
- Surface SNAP-GIPR expression ([1]; replicate 7): 1.352
- Surface SNAP-GIPR expression ([1]; replicate 8): 1.443
- Surface SNAP-GIPR expression ([1]; replicate 9): 1.419
- Surface SNAP-GIPR expression ([1]; replicate 10): 1.583
- Surface SNAP-GIPR expression ([1]; replicate 11): 1.553
- Surface SNAP-GIPR expression ([1]; replicate 12): 1.476
- Surface SNAP-GIPR expression ([1]; replicate 13): 2.028
- Surface SNAP-GIPR expression ([1]; replicate 14): 1.05
- Surface SNAP-GIPR expression ([1]; replicate 15): 1.445
- Surface SNAP-GIPR expression ([1]; replicate 16): 1.582
- Surface SNAP-GIPR expression ([1]; replicate 17): 1.552
- Surface SNAP-GIPR expression ([1]; replicate 18): 1.539
- Surface SNAP-GIPR expression ([1]; replicate 19): 1.754
- Surface SNAP-GIPR expression ([1]; replicate 20): 1.368
- Surface SNAP-GIPR expression ([1]; replicate 21): 1.348
- Surface SNAP-GIPR expression ([1]; replicate 22): 1.435
- Surface SNAP-GIPR expression ([1]; replicate 23): 1.476
- Surface SNAP-GIPR expression ([1]; replicate 24): 1.595
- Surface SNAP-GIPR expression ([1]; replicate 25): 1.677
- Surface SNAP-GIPR expression ([1]; replicate 26): 1.136
- Surface SNAP-GIPR expression ([1]; replicate 27): 1.395
- Surface SNAP-GIPR expression ([1]; replicate 28): 1.292
- Surface SNAP-GIPR expression ([1]; replicate 29): 1.605
- Surface SNAP-GIPR expression ([1]; replicate 30): 1.394
- Surface SNAP-GIPR expression ([1]; replicate 31): 1.688
- Surface SNAP-GIPR expression ([1]; replicate 32): 1.36
- Surface SNAP-GIPR expression ([1]; replicate 33): 1.647
- Surface SNAP-GIPR expression ([1]; replicate 34): 1.582
- Surface SNAP-GIPR expression ([1]; replicate 35): 1.005
- Surface SNAP-GIPR expression ([1]; replicate 36): 1.822
- Surface SNAP-GIPR expression ([1]; replicate 37): 1.489
- Surface SNAP-GIPR expression ([1]; replicate 38): 1.364
- Surface SNAP-GIPR expression ([1]; replicate 39): 0.9756
- Surface SNAP-GIPR expression ([1]; replicate 40): 1.792
- Surface SNAP-GIPR expression ([1]; replicate 41): 1.893
- INS-1 cAMP (100 nM) [2]: 1.389
- +GIP internalisation (100 nM) [3]: 0.8449
- GIP-specific internalisation (100 nM) [3]: 0.2187
- Constitutive internalisation (100 nM) [3]: 0.6262
- Surface expression [3]: 1.57
- Internalisation, +GIP [3]: 54.2947
- Internalisation, GIP-only [3]: 14.1911
- Internalisation, Vehicle [3]: 40.1036
- Surface expression [4]: 1.381
- AD293 100 pM cADDis [5]: 34.3916
- AD293 100 nM cADDis [5]: 37.46
- AD293 100 pM HTRF [6]: 1.117
- AD293 100 nM HTRF [6]: 1.323
- +GIP internalisation (100 nM) [7]: 0.6865
- GIP-specific internalisation (100 nM) [7]: 0.178
- Constitutive internalisation (100 nM) [7]: 0.5085
- Internalisation, +GIP [7]: 49.94
- Internalisation, GIP-only [7]: 12.7417
- Internalisation, Vehicle [7]: 37.1983
